The values below are quoted from earlier work in PMC4786785.

This data set deals with Nterm1 (UniProt position 2, ----MPIAQIH). The note with it: not stated (wild-type enzyme, described in the context of the natural tautomerase mechanism).

“4-oxalocrotonate tautomerase (4-OT) (Pseudomonas putida mt-2)”: the pKa result was “≈6.4”.
